Consider three molecules from article PMC9684487, “Human antibody recognition and neutralization mode on the NTD and RBD domains of SARS-CoV-2 spike protein” (Scientific Reports, 2022).

Settings in all cases: both partners purified
The target in test [1] is T1, SARS-CoV-2 S protein (ECD, His and Flag Tag) (GenScript) (SARS-CoV-2, wild type (Wuhan-Hu-1 …, UniProt P0DTC2)).
T1 construct: source: bought: GenScript
The test is described as follows: SPR. (In SPR one partner is held on a chip, and binding of the other changes the refractive index at the surface.)

Test [2] concerns the target NTD + RBD (aa 13–541) of the SARS-CoV-2 S protein (SARS-CoV-2, wild type (Wuhan-Hu-1 …, UniProt P0DTC2)). The test is described as follows: ELISA.
In test [3] the target is T2, S1 (aa 13–685) of the SARS-CoV-2 S protein (SARS-CoV-2, wild type (Wuhan-Hu-1 …, UniProt P0DTC2)).
T2 construct: also called subunit 1
Description: ELISA. In general terms: An ELISA detects its analyte on a solid surface through an enzyme-linked reagent.

In test [4] the target is T3, recombinant S ECD protein (aa 13–1208) of SARS-CoV-2 (SARS-CoV-2, UniProt P0DTC2).
T3 construct: also called S protein; extracellular domain of the S protein
The test is described as follows: ELISA.

B1: NIBIC-71 (antibody, V domains shown)
VH: EVQLVESGGGLIQPGGSLRLSCEASGLIVSSNYMTWVRQAPGKGLEWVSVIYSGGSTFYADSVKGRFTVSRDNSKNTLYLQMNNLSPEDTAVYYCARDLGPYGVDVWGQGTTVTVSS
VL: AIQLTQSPSSLSASVGDRVTITCRASQGISSYLAWYQQTPGKAPKLLIYAASTLQSGVPSRFSGSGSGTDFTLTISSLQPEDFATYYCQQLNSYPPFTFGPGTKVDIK
notes: also called recombinant mAb NIBIC-71
As a reminder, the Kd is the free concentration of one partner at which half of the binding sites on the other are occupied at equilibrium, for simple one-to-one binding. By koff is commonly meant a measure of how fast the partners let go of each other. Low readings indicate slow dissociation, high ones fast dissociation. As usually defined, the kon is the second-order rate constant of association. A higher kon goes with fast association. For the molecule B1, in test [1], the Kd was 1.33 nM, the koff turned out to be 6.35e-05 s⁻¹ and the kon worked out at 47700 M⁻¹ s⁻¹.

B2: 7G7/κ (antibody, V domains shown)
VH: QVQLVESGGGVVQPGRSLRLSCIASGFTFRNYAMYWVRQAPGKGLEWVAVIWYDGSNKFYTDSVKGRFTISRDNSKNSLYLQMNSLRAEDTAVYFCARDQGFGDNYYYYGMDVWGQGTTVTVSS
VL: SYELTQPPSVSVSPGQTARISCSGDALPKEYAYWYQQKPGQAPVLVIYKDSERPSGIPERFSGSSSGTTVTLTISGVQAEDEADYYCQLADSSMHYVVFGGGTKLTVL
notes: also called 7G7-IgG1κ; 7G7/κ (IgG1/Igκ); source: Expi293F, cotransfected with IgH and IgL vectors, purified (HiTrap Protein G)
With B2, the binding result in test [2], in test [3] and in test [4] was “binds” each time.

B3: 7G7/λ (antibody, V domains shown)
VH: B2 VH
VL: B2 VL
notes: also called 7G7 (7G7/λ); IgG1/Igλ2; source: Expi293F, cotransfected with IgH and IgL vectors, purified (HiTrap Protein G)
Regarding B3, the binding result in test [4] is reported as “binds”.
